Experimental data: publication PMC10952558, “Domain shuffling of a highly mutable ligand‐binding fold drives adhesin generation across the bacterial kingdom” (Proteins, 2023)
Where two headings read alike, the source gives them in different places.

Experiments:
[1] = biological target: cellular fibronectin (human); experiment: MST; RED-NHS labeled cFn at 50 nM mixed with 16 concentrations (92 pM-3 uM) of the unlabeled protein; 637 mM NaCl, 2.7 mM KCl, 10 mM Na2HPO4, 1.8 mM KH2PO4, pH 7.4; 22-23°C; Monolith NT.115, MST power 40%, excitation 20%; triplicate; single-site dose-response model
[2] = biological target: the molecule itself; experiment: crystal structure; dimeric SEC fraction of C-terminally His-tagged CshB_NR2; sitting drop, 20°C, 0.1 M SPG buffer pH 5, 25% w/v PEG 1500; molecular replacement with 5L2D; 1.4 Å
[3] = biological target: cellular fibronectin (human); experiment: MST; RED-NHS labeled cFn at 50 nM mixed with 16 concentrations (92 pM-3 uM) of the unlabeled protein; 637 mM NaCl, 2.7 mM KCl, 10 mM Na2HPO4, 1.8 mM KH2PO4, pH 7.4; 22-23°C; Monolith NT.115, MST power 40%, excitation 20%; triplicate; single-site dose-response model; remark: listed apart in the source

## CshB_NR2 (NR2 domain of CshB), N-terminally hexa-histidine-tagged variant (from UniProt A8AXC5 211-528) (domain or fragment)
[1]
  Kd: 530 nM

B1: CshB_NR2 (NR2 domain of CshB), C-terminally hexa-histidine-tagged variant, dimeric form (domain or fragment)
chain: WLDFSDSASWKNLDQRGGLKVGTTFTKEISPGYVVTLTVKELKPFNSTEIYKKRVAGTATEGTYNPDAENGFLTSAPYYGKTPPPSVTGAAQNEWTTIRDQGFNTQKRKTQLVYPMNSTNWGVKFDIEATYLGKRVAPTVVMADGEDANPGEFAIFTTNGTGWEYMGEWKMKSPAKEAYTVITKKMLDDEDVKRRGLLILKDKSVDWYKYLSPDTVTGGLGSQVFGPNRSNERTVPVVMTRGASEVGFYVASSGQQAMMMGFLVVDVSDAPESYGEAFHTISTRDSVTNDPINQPYLGTTPADIDVESSNDWVLDDKK
notes: CshB, Streptococcus gordonii DL1, NR2 domain, residues 211-528 of the full-length CshB polypeptide; amplified from chromosomal DNA, in pOPINE; Used for crystallization; Only the dimeric SEC fraction crystallised
[2]
  stoichiometry N: 2

B2: CshA_NR2 (NR2 domain of cell surface hydrophobicity protein A), wild type (domain or fragment)
chain: WVDFSDTASMKNLDPQGGFKVGTVFKKEISPGYVVTLTVTELKPFNSTEIYKKRVEGTPTANTYDPNAINSYLKGYKDYGKTPPSVTGRPQNKFSTIGGQGFDTQGRKTQIILPDDAVNWGIKFKVEATYRGNPVKPSVVMADGEDANPAEYGIFTTNGEGWEYVGEWMKGPRAKGPYTVMTEDMVKAFDKTRKDGLLILKDKSVDWSKYLSPDTVTGGLGSQVFGPIISASKAVPVVMTRGASEVGFYVATGGQQALMMGFLVVDSSDAPASYGEAYHTIGTRDSIANTPINQPYLGSTAADIDADSESDWTADDRE
[3]
  Kd: 302 nM
